Measured values as given in paper PMC3564486 (Developmental cell, 2011).
Numbering of substitutions follows the chain as printed. Each block holds one binder with its values, some of them ahead of it.

Tests used:
[1] = target: T1, LRP6 ectodomain (LRP6ECD) (human, UniProt O75581 20-1361); assay: SEC-MALS
T1 sequence (looked up): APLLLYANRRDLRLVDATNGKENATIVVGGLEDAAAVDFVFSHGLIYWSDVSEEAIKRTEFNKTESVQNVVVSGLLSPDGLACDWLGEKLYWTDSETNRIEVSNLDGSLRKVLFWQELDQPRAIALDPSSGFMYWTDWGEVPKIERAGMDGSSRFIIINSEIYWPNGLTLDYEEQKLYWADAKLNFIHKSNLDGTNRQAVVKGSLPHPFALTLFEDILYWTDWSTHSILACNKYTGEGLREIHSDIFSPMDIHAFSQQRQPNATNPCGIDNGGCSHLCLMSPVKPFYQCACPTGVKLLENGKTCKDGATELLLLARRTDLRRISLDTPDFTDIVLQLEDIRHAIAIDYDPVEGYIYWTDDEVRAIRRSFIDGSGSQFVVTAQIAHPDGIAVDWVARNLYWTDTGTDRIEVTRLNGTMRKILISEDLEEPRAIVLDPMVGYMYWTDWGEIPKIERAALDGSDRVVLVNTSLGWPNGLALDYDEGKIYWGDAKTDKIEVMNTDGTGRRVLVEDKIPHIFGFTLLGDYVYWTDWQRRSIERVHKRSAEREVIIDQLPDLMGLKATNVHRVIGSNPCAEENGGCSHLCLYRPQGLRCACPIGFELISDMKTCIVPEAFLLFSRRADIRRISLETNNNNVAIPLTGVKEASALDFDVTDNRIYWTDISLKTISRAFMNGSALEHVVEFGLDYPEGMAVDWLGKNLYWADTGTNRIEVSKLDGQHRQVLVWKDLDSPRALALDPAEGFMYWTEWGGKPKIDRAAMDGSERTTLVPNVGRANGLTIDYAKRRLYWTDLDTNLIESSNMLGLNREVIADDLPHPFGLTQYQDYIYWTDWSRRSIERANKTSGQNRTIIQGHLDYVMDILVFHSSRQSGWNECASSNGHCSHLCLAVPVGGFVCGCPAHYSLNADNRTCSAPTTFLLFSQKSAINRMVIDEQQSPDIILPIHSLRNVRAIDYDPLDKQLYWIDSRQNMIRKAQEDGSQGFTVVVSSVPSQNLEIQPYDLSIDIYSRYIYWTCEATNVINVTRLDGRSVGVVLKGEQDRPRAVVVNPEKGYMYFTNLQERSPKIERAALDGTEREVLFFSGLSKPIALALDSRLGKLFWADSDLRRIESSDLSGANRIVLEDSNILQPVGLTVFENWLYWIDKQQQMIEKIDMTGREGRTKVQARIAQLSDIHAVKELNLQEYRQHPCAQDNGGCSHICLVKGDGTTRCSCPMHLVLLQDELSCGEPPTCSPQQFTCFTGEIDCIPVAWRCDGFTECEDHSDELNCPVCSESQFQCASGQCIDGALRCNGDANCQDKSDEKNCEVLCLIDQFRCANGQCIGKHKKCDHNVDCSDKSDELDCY

[2] = target: T2, LRP6_(P3E3P4E4), wild type (human, UniProt O75581 629-1244); assay: SPR
T2 sequence (looked up): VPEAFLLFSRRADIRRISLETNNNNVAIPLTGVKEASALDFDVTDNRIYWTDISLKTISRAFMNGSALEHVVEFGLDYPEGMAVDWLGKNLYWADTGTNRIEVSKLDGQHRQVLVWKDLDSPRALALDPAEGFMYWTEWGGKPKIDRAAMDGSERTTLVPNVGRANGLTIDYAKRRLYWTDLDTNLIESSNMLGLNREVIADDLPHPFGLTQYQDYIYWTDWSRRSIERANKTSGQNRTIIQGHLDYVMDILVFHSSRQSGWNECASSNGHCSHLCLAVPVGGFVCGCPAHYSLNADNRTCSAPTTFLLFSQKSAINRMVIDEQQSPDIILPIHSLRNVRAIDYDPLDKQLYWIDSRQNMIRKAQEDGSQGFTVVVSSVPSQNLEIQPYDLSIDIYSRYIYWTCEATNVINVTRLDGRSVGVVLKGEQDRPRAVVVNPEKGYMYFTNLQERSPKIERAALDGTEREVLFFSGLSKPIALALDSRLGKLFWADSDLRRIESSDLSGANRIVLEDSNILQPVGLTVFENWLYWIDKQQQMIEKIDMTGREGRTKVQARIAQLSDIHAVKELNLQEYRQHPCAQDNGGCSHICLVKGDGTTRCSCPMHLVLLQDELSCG

LRP6_(P3E3P4E4) Y706A = target: T3, LRP6_(P3E3P4E4) Y706A (human, UniProt O75581 629-1244, Y706A); assay: SPR
T3 sequence (looked up): T2 sequence (looked up) with Y78A

LRP6_(P3E3P4E4) W767A = target: T4, LRP6_(P3E3P4E4) W767A (human, UniProt O75581 629-1244, W767A); assay: SPR
T4 sequence (looked up): T2 sequence (looked up) with W139A

LRP6_(P3E3P4E4) E708A = target: T5, LRP6_(P3E3P4E4) E708A (human, UniProt O75581 629-1244, E708A); assay: SPR
T5 sequence (looked up): T2 sequence (looked up) with E80A

LRP6_(P3E3P4E4) N813A = target: T6, LRP6_(P3E3P4E4) N813A (human, UniProt O75581 629-1244, N813A); assay: SPR
T6 sequence (looked up): T2 sequence (looked up) with N185A

stoichiometry N [1]: 1
B1: human Mesd with an internal Flag tag (co-expressed with LRP6ECD) (natural protein, UniProt Q14696-1 34-234, looked up)
chain: AEGSPGTPDESTPPPRKKKKDIRDYNDADMARLLEQWEKDDDIEEGDLPEHKRPSAPVDFSKIDPSKPESILKMTKKGKTLMMFVTVSGSPTEKETEEITSLWQGSLFNANYDVQRFIVGSDRAIFMLRDGSYAWEIKDFLVGQDRCADVTLEGQVYPGKGGGSKEKNKTKQDKGKKKKEGDLKSRSSKEENRAGNKREDL

Kd [2]: 58 nM
binding result (LRP6_(P3E3P4E4) Y706A): binds
binding result (LRP6_(P3E3P4E4) W767A): binds
binding result (LRP6_(P3E3P4E4) E708A): binds
binding result (LRP6_(P3E3P4E4) N813A): binds
B2: Dickkopf 1 (Dkk1) (ligand, human, UniProt O94907 32-266, looked up)
chain: TLNSVLNSNAIKNLPPPLGGAAGHPGSAVSAAPGILYPGGNKYQTIDNYQPYPCAEDEECGTDEYCASPTRGGDAGVQICLACRKRRKRCMRHAMCCPGNYCKNGICVSSDQNHFRGEIEETITESFGNDHSTLDGYSRRTTLSSKMYHTKGQEGSVCLRSSDCASGLCCARHFWSKICKPVLKEGQVCTKHRRKGSHGLEIFQRCYCGEGLSCRIQKDHHQASNSSRLHTCQRH
